From patent publication US20220378827A1 (EMORY UNIVERSITY, published 2022)

Biological target: T1, CD5 antigen on T cells (Jurkat, Molt-4, gamma delta T cells) (UniProt P06127 25-495, limits assumed)
T1 sequence (looked up): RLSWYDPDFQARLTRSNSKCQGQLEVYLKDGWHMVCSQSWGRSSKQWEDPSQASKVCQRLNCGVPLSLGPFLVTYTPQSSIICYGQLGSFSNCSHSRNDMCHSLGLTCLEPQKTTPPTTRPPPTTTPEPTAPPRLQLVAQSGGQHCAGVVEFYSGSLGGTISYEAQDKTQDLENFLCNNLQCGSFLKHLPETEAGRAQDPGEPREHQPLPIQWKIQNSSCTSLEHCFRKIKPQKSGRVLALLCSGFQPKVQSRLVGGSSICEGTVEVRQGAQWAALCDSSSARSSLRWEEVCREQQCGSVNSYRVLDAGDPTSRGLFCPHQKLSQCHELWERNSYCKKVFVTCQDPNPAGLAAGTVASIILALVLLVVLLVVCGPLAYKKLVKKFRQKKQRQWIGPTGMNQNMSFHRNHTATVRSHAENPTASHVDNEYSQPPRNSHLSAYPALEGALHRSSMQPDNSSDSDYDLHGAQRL
Assay: cell-based or functional assay

B1: CD5-NSCAR (CD5 scFv non-signaling chimeric antigen receptor) (other)
chain: GAPEIQLVQSGGGLVKPGGSVRISCAASGYTFTNYGMNWVRQAPGKGLEWMGWINTHTGEPTYADSFKGRFTFSLDDSKNTAYLQINSLRAEDTAVYFCTRRGYDWYFDVWGQGTTVTVSSGGGGSGGGGSGGGGSDIQMTQSPSSLSASVGDRVTITCRASQDINSYLSWFQQKPGKAPKTLIYRANRLESGVPSRFSGSGSGTDYTLTISSLQYEDFGIYYCQQYDESPWTFGGGTKLEIKASEQKLISEEDLDNEKSNGTIIHVKGKHLCPSPLFPGPSKPFWVLVVVGGVLACYSLLVTVAFIIFWVRSEWPGKVR
B1 was tested. Which “CD5 expression on non-modified Jurkat T cells in co-culture with CD5-NSCAR-modified Jurkat T cells, 1:1 ratio” value did it give?
Its value is under 20%.
